Measurements as given in article PMC11032457 (Proceedings of the National Academy of Sciences of the …, 2024).

How the values were obtained:
TK0186 protein = target: T1, TK0186 protein (Thermococcus kodakarensis, UniProt Q5JFM8); assay: glycine formation, HPLC; format: biochemical; details: amino donor; 10 mM glyoxylate; 20 μM PLP; 50 mM HEPES pH 7.5; 80 °C
T1 sequence (Q5JFM8 1-417): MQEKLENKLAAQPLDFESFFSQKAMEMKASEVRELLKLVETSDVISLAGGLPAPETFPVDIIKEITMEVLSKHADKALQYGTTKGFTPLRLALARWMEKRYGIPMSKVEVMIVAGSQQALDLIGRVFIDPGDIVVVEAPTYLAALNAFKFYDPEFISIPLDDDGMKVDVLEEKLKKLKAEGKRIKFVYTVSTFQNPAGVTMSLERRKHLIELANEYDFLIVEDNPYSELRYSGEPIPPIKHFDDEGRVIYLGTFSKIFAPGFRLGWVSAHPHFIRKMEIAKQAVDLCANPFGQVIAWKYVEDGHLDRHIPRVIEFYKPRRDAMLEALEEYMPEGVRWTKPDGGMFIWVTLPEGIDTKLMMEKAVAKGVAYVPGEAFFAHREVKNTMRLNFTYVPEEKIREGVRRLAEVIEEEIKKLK

TK1094 protein = target: T2, TK1094 protein (Thermococcus kodakarensis, UniProt Q5JE21); assay: glycine formation, HPLC; format: biochemical; details: amino donor; 10 mM glyoxylate; 20 μM PLP; 50 mM HEPES pH 7.5; 80 °C
T2 sequence (Q5JE21 1-399): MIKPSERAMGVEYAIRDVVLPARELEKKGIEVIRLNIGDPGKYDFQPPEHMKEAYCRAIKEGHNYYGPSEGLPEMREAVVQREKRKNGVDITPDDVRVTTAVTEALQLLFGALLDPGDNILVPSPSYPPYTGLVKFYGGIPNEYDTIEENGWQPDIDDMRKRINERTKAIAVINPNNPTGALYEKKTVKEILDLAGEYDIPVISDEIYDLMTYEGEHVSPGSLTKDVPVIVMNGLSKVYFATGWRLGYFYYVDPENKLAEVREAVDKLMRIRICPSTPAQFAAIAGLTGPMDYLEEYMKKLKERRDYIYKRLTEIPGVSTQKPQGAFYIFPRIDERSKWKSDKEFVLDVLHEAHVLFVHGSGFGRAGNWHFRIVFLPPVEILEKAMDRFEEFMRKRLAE

purified protein [1] = substrate: O=CC(=O)O; assay: purified protein; details: reduction, 0.3 mM NADH, 85 °C, 50 mM Tris pH 7.5
purified protein [2] = substrate: C[C@@H](O)C(=O)O; assay: purified protein; details: oxidation, 10 mM NAD+, 80 °C, 50 mM Tris pH 7.5
purified protein [3] = substrate: O=C(O)C(=O)CO; assay: purified protein; details: reduction, 0.3 mM NADH, 85 °C, 50 mM Tris pH 7.5
purified protein [4] = substrate: O=C(O)CO; assay: purified protein; details: oxidation, 10 mM NAD+, 80 °C, 50 mM Tris pH 7.5
purified protein [5] = substrate: O=C(O)COP(=O)(O)O; assay: purified protein; details: 80 °C
purified protein [6] = substrate: O=C(COP(=O)(O)O)[C@H](O)[C@H](O)COP(=O)(O)O; assay: purified protein; details: 80 °C, 50 mM MES-NaOH pH 6.5, 10 mM MgCl2
purified protein [7] = substrate: O=C[C@H](O)[C@H](O)COP(=O)(O)O; assay: purified protein; details: 80 °C, 50 mM MES-NaOH pH 6.5, 10 mM MgCl2
purified protein [8] = substrate: O=C(CO)[C@H](O)[C@H](O)COP(=O)(O)O; assay: purified protein; details: 80 °C, 50 mM MES-NaOH pH 6.5, 10 mM MgCl2
purified protein [9] = substrate: CCCC(=O)C(=O)O; assay: purified protein; details: reduction, 0.3 mM NADH, 85 °C, 50 mM Tris pH 7.5
purified protein [10] = substrate: CC(C)C(=O)C(=O)O; assay: purified protein; details: reduction, 0.3 mM NADH, 85 °C, 50 mM Tris pH 7.5
purified protein [11] = substrate: CC[C@H](C)C(=O)C(=O)O; assay: purified protein; details: reduction, 0.3 mM NADH, 85 °C, 50 mM Tris pH 7.5
purified protein [12] = substrate: CC(=O)C(=O)O; assay: purified protein; details: reduction, 0.3 mM NADH, 85 °C, 50 mM Tris pH 7.5
[13] = 50 mM MES-NaOH pH 6.5, 10 mM MgCl2
[14] = 50 mM MES-NaOH pH 7.0, 10 mM MgCl2

C[C@H](N)C(=O)O [L-alanine]
glycine formation, HPLC (TK0186 protein): the most preferred amino donor was L-alanine (Fig. 3E) | glycine formation, HPLC (TK1094 protein): In the case of the TK1094 protein, activity was observed with L-alanine and L-glutamate

B1: TK0683 protein (GLDH) (Thermococcus kodakarensis KOD1) (protein)
chain: MRPKVFITRAIPENGIEMLKEHFEVEVWPEEREIPREVLLKKVRDVDALVTMLSERIDSEVFDAAPRLRIVANYAVGYDNIDVEEATRRGIYVTNTPDVLTDATADFAWTLLLATARRLIEADHFTRSGEWKRRGIAWHPRWFLGYDVYGKTIGIVGFGRIGQAVARRARGFGMRILYYSRSRKPEAEKELGAEFRSLEDLLRESDFVVLAVPLTKETQYMINEERLRLMKKTAILVNIARGKVVDTKALMKALKEGWIAGAGLDVYEEEPYYNEELFSLKNVVLAPHIGSATYGAREGMAELVARNLIAFKNGEVPPTLVNKEVVKVRKPGF
Km (purified protein [1]): 1490 ± 800 µM | kcat (purified protein [1]): 2030 ± 92 s⁻¹ | kcat/Km (purified protein [1]): 1.36e+06 M⁻¹ s⁻¹ | Km (purified protein [2]): 440 ± 60 µM | kcat (purified protein [2]): 0.105 ± 0.003 s⁻¹ | kcat/Km (purified protein [2]): 240 M⁻¹ s⁻¹ | Km (purified protein [3]): 310 ± 70 µM | kcat (purified protein [3]): 3130 ± 462 s⁻¹ | kcat/Km (purified protein [3]): 1e+07 M⁻¹ s⁻¹ | Km (purified protein [4]): 440 ± 60 µM | kcat (purified protein [4]): 0.213 ± 0.005 s⁻¹ | kcat/Km (purified protein [4]): 490 M⁻¹ s⁻¹

B2: TK2301 protein (Thermococcus kodakarensis KOD1) (protein)
chain: MTIKAISVDIDGTITYPDRRLHEKALEAIRLAESLGVPVMLVTGNTVQFGEAAAILIGTSGPVVGEDGGALSIKEGKLRKRVYLTNMDEEWILWGELKKRYPEALLSFSMPERKAGLVVLRTVPVKAVRELIKELGLNLIAVDSGFAIHIKKPWINKGTGIEKACEYLGISPKEVAHIGDGENDLDAFGVVGYRVAVAQAPESLKEKADYVTTKPYGEGGAEAIEHILRKFGYLPEEKT
Km (purified protein [5]; [13]): 1220 ± 90 µM | kcat (purified protein [5]; [13]): 21.2 ± 0.4 s⁻¹ | kcat/Km (purified protein [5]; [13]): 17400 M⁻¹ s⁻¹ | Km (purified protein [6]): 238 ± 44 µM | kcat (purified protein [6]): 30.1 ± 1.3 s⁻¹ | kcat/Km (purified protein [6]): 126000 M⁻¹ s⁻¹ | Km (purified protein [7]): 1250 ± 280 µM | kcat (purified protein [7]): 17.1 ± 1 s⁻¹ | kcat/Km (purified protein [7]): 13700 M⁻¹ s⁻¹ | Km (purified protein [8]): 979 ± 157 µM | kcat (purified protein [8]): 16.3 ± 0.5 s⁻¹ | kcat/Km (purified protein [8]): 16600 M⁻¹ s⁻¹

B3: TK0551 protein (GLDH candidate) (Thermococcus kodakarensis KOD1) (protein)
chain: MRPRVLVTFKMKSKPVEELKKYADVDFLLYPSVEELAEKIKDYDGLIVSPLNRVPREVIERAERLKVISCHSAGYDHVDVEAATKKGIYVTKVSGVLSEAVAEFAVGLTIALLRKFVYTDKLIRRGEWDSHAKIWSTFKDIETVYGKKVGILGMGAIGKAIARRMKAMGTEILYWSRSRKEDIEAEVGAKYLPLDEVLRESDIVILALPATPETYHIINEERIKLLEGKYLVNIGRGTLVDEKAVVKAIEEGRLKGYATDVFEKEPVTEHPLFKYEWETVLTPHHAGLSKEAMEDMGFQAVMNLLAVLRGEIPKDLVNREVVKVRPPEEVKML
Km (purified protein [9]): 1440 ± 90 µM | kcat (purified protein [9]): 14 ± 0.3 s⁻¹ | kcat/Km (purified protein [9]): 9720 M⁻¹ s⁻¹ | Km (purified protein [10]): 1900 ± 440 µM | kcat (purified protein [10]): 15.9 ± 2.2 s⁻¹ | kcat/Km (purified protein [10]): 8370 M⁻¹ s⁻¹ | Km (purified protein [11]): 1930 ± 250 µM | kcat (purified protein [11]): 18.3 ± 2.2 s⁻¹ | kcat/Km (purified protein [11]): 9480 M⁻¹ s⁻¹ | Km (purified protein [1]): 2870 ± 390 µM | kcat (purified protein [1]): 186 ± 2 s⁻¹ | kcat/Km (purified protein [1]): 64800 M⁻¹ s⁻¹ | Km (purified protein [12]): 6890 ± 810 µM | kcat (purified protein [12]): 12.4 ± 0.6 s⁻¹ | kcat/Km (purified protein [12]): 1780 M⁻¹ s⁻¹ | Km (purified protein [2]): 9900 ± 1150 µM | kcat (purified protein [2]): 0.324 ± 0.013 s⁻¹ | kcat/Km (purified protein [2]): 32.7 M⁻¹ s⁻¹ | Km (purified protein [3]): 3730 ± 250 µM | kcat (purified protein [3]): 104 ± 3 s⁻¹ | kcat/Km (purified protein [3]): 27900 M⁻¹ s⁻¹ | Km (purified protein [4]): 24100 ± 1260 µM | kcat (purified protein [4]): 0.376 ± 0.009 s⁻¹ | kcat/Km (purified protein [4]): 15.6 M⁻¹ s⁻¹

B4: TK1734 protein (2-PG phosphatase) (Thermococcus kodakarensis KOD1) (protein)
chain: MTRKIGIIFDMDGVIYRGSEPINGAKEVIEFLKERKIPFLFLTNNSTRDPAMYREKLLSMGIDVPEDVIVTSGLATRLYMEKHFEPGEVFVIGGKGLLREMERLGWGVVSLEDARKGAWKRIKHVVVGLDPELTYEKLKYGTLAIRNGASFIGTNPDTTYPAEEGLYPGAGAIIAALRASTDREPVIIGKPNEPAYEVVKDKLGDVEELWMVGDRLDTDIAFAKRFGMKAIMVLTGVSTLKDVAESGIKPNLVLPDVGELKRYLEAAL
Km (purified protein [5]; [14]): 1750 ± 220 µM | kcat (purified protein [5]; [14]): 65.6 ± 2.5 s⁻¹ | kcat/Km (purified protein [5]; [14]): 37500 M⁻¹ s⁻¹
